Measurements: article PMC7237784
Residue numbers refer to the chain shown, from its start.

Legend:
[1] = biological target: T1, AcFur SI H31A;H88A (Acidithiobacillus caldus MTH-04) (UniProt A0A060A2G1); assay: EMSA; conditions: EMSA: 0.4 nM DNA, 0/2/4/8 nM protein, 10 mM Tris-HCl pH 8.0, 100 mM NaCl, 1 mM MnCl2, room temperature, 30 min; 5% native PAGE in 0.5x TBE, EB stain
T1 sequence: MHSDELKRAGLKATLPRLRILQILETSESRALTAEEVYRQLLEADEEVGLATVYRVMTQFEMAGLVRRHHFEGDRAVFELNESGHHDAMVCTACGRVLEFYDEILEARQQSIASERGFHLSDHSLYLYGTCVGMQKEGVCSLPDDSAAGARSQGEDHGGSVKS

[2] = biological target: T2, AcFur SII E106A;H123A (Acidithiobacillus caldus MTH-04) (UniProt A0A060A2G1); assay: EMSA; conditions: EMSA: 0.4 nM DNA, 0/2/4/8 nM protein, 10 mM Tris-HCl pH 8.0, 100 mM NaCl, 1 mM MnCl2, room temperature, 30 min; 5% native PAGE in 0.5x TBE, EB stain
T2 sequence: T1 sequence with A31H, A88H, E106A, H123A

Row | Sequence | binding [1] | binding [2]
1 | GCGTAGGACGTCCTTGATAACTGCAACTAAGTTGCATATATTCCGCACGACCACTCCGCGCGTCCCTGGGGAGCTTGACCGGTAAGTCTATTTATTGAATGATAATGATTAGCATTTATATTATTTGGAGAGATTGTCCATGCGTCGTATACCCCTCTGTGCGCTGCTGAGCACCATGCTTGCTTCCAGC (double strand) [feoP promoter] | no binding | binds more weakly
2 | TTCCACCTGCTCACCTGCGCGGGCCGAGCTCAGGCGGTGGGGGGAAAGGACTTGGGTCATGACGCTCACACTCCCAACGAGTTCGTGGGGACACTATATCATAATGGTAATCATTTGCAATATCAGCCCAAGGGAGGGCCGTCCCGGCGGACGCAGCCGCCGACGCTCAGTCCAGGTCGCCGTGCCTGGGTGTAAAACGC (double strand) [feoABC operator (feoA promoter)] | no binding | binds more weakly
